Source: publication PMC9275567

Legend:
[1] = molecular target: FUsed in Sarcoma (FUS) in HeLa-Kyoto cells (human (endogenous in HeLa-Kyoto)) (UniProt P35637); assay: cross-linking + co-IP
[2] = molecular target: RNA polymerase II (RNA Pol II) (human (endogenous in HeLa-Kyoto)) (UniProt P24928); assay: cross-linking + co-IP

percent of RNA Pol II cross-linked to FUS (large particles, >70 nm) [1] [%] | percent of RNA Pol II cross-linked to FUS (whole cell lysate) [1] [%] | percent of cellular FUS cross-linked to RNA Pol II [2] [%] | Substance
69 | 87 | – | RNA polymerase II (RNA Pol II) (from UniProt P24928 1-1970) (complex)
– | – | 21 | FUsed in Sarcoma (FUS) in HeLa-Kyoto cells (from UniProt P35637 1-526) (natural protein)
